Here are results for 2 molecules from US20150291695A1 (CANCER RESEARCH TECHNOLOGY, published 2015).

Assay [1] concerns the target T1, carcinoembryonic antigen on LS-174T cells (human, UniProt P06731 35-702).
T1 construct: whole, on cells; also called CEA on LS174T cells; CEA-expressing LS-174T cells
T1 sequence: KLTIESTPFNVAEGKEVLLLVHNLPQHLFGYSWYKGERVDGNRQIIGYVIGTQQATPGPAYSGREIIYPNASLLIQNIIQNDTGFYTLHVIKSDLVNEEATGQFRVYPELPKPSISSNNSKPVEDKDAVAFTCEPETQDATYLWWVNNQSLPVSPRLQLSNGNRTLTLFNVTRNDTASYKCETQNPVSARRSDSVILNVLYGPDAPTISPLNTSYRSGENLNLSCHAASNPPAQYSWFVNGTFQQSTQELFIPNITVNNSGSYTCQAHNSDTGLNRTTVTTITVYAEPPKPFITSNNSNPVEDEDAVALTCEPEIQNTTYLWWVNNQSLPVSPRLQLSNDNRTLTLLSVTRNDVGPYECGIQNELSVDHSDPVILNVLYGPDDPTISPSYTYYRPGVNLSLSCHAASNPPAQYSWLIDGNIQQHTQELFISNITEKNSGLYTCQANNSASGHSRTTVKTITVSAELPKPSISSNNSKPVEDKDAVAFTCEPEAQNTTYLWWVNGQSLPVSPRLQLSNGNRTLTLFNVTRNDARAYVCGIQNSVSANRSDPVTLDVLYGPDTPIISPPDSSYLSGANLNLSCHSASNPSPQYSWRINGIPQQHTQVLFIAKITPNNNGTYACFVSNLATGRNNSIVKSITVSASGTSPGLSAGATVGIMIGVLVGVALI
As to the kind of experiment: flow cytometry on LS174T cells. (In general: Flow cytometry measures light scatter and fluorescence of single cells or particles in a stream.)

The target in assay [2] is T2, αvβ3 integrin, immobilized (UniProt P06756 31-1048; P05106 27-788).
T2 construct: also called immobilized αvβ3
Kind of assay: ELISA on immobilized αvβ3, rabbit anti-MFE detection.

Assay [3] concerns the target T3, α5β1 integrin on A375Ppuro cells (UniProt P08648 42-1049; P05556 21-798).
T3 construct: whole, on cells
Kind of assay: flow cytometry on A375Ppuro cells, which express α5β1.

The target of assay [4] is T4, αvβ3 integrin on A375Ppuro cells (UniProt P06756 31-1048; P05106 27-788).
T4 construct: whole, on cells
As to the kind of experiment: flow cytometry on A375Ppuro cells, which express αvβ3.

Assay [5] concerns the target T5, αvβ5 integrin on A375Ppuro cells (UniProt P06756 31-1048; P18084 24-799).
T5 construct: whole, on cells
As to the kind of experiment: flow cytometry on A375Ppuro cells, which express αvβ5.

Assay [6] has as its target T6, αvβ8 integrin on A375Ppuro cells (UniProt P06756 31-1048; P26012 43-769).
T6 construct: whole, on cells
Kind of assay: flow cytometry on A375Ppuro cells, which express αvβ8.

In assay [7] the target is T7, carcinoembryonic antigen, immobilized (UniProt P06731 35-685).
T7 construct: also called CEA; immobilized CEA
T7 sequence: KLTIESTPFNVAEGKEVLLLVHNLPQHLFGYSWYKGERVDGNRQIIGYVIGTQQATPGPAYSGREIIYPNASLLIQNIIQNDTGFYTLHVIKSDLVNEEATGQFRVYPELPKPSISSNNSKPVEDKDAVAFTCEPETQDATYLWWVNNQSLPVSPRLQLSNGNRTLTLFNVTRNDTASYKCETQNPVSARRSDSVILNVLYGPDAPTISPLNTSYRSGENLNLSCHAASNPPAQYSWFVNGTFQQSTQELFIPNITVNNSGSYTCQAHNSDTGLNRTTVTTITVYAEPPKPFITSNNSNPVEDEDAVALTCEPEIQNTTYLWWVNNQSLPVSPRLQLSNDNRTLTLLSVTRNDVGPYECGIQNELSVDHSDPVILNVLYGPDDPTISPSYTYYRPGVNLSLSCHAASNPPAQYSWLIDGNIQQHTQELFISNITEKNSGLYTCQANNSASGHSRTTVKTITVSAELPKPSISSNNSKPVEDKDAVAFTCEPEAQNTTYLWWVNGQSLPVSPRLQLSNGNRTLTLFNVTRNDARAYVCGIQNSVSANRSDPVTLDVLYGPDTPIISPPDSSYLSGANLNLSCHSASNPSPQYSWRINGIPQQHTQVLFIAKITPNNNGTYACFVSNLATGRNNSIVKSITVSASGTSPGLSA
Kind of assay: ELISA on immobilized CEA, rabbit anti-MFE detection, three concentrations. For orientation: In an ELISA, binding on a coated surface is turned into a signal by an enzyme label.

The target in assay [8] is T8, αvβ6 integrin, immobilized (UniProt P06756 31-992; P18564 22-709).
T8 construct: also called immobilized αvβ6; rsαvβ6
T8 sequence (P06756 31-992, chain 1 of 2): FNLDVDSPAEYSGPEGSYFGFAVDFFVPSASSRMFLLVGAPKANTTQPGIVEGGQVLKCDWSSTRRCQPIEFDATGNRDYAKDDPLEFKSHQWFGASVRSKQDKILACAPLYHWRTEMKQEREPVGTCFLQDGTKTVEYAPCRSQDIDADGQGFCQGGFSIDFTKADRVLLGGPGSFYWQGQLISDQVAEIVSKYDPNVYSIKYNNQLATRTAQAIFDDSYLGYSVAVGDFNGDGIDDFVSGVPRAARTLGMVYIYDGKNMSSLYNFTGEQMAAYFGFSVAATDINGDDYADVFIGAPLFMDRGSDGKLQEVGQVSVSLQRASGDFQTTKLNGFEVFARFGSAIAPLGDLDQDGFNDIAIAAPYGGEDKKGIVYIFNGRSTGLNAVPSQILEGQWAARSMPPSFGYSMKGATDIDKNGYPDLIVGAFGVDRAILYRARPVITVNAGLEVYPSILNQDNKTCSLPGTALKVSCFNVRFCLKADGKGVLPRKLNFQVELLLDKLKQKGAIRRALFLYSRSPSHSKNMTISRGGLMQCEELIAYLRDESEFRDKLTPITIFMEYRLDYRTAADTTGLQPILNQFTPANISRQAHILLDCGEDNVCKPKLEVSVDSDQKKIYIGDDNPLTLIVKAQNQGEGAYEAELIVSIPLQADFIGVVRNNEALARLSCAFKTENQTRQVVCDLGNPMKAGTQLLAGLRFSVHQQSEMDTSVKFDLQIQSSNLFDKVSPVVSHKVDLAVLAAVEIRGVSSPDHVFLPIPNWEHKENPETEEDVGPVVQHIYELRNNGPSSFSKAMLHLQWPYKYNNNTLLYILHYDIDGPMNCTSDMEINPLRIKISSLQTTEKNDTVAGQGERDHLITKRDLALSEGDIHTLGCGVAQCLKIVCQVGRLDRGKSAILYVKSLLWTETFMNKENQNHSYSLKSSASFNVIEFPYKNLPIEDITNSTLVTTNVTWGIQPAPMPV
T8 sequence (P18564 22-709, chain 2 of 2): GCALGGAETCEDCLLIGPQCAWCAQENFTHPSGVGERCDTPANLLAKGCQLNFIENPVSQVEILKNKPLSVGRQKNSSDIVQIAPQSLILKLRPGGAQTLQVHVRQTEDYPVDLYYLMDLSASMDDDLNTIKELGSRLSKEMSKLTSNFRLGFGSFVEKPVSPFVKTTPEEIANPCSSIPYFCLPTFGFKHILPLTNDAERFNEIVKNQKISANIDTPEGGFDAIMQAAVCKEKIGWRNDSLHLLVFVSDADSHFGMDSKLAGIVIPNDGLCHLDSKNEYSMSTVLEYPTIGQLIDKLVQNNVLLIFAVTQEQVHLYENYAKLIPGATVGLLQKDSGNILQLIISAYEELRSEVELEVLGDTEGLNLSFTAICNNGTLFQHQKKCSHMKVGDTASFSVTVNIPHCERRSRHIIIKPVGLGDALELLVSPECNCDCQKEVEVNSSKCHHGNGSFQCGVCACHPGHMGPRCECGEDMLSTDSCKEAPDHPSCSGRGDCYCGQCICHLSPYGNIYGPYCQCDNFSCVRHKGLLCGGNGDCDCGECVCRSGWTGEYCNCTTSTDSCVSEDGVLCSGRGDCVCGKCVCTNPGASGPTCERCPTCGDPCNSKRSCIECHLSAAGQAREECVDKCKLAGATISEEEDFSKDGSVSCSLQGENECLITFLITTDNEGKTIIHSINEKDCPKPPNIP
As to the kind of experiment: ELISA on immobilized αvβ6, rabbit anti-MFE detection.

T3 sequence (P08648 42-1049, chain 1 of 2): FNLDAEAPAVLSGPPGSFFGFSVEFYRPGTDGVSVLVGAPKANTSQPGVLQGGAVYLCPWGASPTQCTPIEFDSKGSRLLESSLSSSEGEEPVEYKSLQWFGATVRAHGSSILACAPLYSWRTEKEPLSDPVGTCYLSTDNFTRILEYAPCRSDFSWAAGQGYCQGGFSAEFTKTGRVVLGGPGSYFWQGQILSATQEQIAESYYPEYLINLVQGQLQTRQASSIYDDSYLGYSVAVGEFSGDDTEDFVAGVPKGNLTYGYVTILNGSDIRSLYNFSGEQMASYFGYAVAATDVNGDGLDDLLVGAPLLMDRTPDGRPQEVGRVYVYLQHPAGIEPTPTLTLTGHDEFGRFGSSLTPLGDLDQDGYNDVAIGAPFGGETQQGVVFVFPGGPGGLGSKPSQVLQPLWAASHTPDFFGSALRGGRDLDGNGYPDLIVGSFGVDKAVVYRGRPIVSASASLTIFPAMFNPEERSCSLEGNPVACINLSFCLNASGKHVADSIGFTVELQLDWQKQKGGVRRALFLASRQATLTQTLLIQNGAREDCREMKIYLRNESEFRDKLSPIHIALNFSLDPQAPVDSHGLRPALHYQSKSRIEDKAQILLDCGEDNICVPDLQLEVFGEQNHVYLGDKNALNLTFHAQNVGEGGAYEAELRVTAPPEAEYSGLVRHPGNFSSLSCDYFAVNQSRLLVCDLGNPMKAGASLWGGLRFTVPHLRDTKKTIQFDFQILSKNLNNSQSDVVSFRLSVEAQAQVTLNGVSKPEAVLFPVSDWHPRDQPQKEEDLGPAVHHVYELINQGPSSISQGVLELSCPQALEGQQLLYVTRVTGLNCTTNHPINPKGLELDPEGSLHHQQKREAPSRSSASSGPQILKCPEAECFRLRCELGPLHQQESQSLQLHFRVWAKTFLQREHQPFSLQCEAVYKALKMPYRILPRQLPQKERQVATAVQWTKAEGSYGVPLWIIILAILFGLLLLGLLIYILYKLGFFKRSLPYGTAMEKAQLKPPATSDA
T3 sequence (P05556 21-798, chain 2 of 2): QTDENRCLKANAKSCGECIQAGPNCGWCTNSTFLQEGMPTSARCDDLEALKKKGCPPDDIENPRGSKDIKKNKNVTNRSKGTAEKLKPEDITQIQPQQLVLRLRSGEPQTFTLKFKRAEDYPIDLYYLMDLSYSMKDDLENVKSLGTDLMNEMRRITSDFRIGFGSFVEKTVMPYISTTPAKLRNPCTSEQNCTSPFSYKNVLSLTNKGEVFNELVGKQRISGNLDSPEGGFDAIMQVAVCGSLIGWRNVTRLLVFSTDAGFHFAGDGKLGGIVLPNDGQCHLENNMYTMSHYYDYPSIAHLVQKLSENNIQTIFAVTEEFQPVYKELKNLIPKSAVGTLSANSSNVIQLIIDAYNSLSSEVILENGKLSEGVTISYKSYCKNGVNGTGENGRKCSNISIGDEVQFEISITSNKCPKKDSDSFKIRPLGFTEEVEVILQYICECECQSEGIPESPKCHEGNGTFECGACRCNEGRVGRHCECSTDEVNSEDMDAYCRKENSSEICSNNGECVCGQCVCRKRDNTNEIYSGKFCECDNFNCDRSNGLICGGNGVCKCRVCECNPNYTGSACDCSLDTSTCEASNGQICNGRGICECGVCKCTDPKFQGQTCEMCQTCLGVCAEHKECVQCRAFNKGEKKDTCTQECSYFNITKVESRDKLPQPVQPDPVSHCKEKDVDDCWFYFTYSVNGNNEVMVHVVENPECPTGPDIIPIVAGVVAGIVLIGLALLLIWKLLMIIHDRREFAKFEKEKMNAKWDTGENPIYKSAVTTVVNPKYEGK

B1: NFEVP1 (scFv)
scFv: QVKLQQSGAELVRSGTSVKLSCTASGFNIKDSYMHWLRQGPEQGLEWIGWIDPENGDTEYAPKFQGKATFTTDTSSNTAYLQLSSLTSEDTAVYYCNEGTPTAVPNLRGDLQVLAQKVAGPYPFDYWGQGTTVTVSSGGGGSGGGGSGGGGSENVLTQSPAIMSASPGEKVTITCSASSSVSYMHWFQQKPGTSPKLWIYSTSNLASGVPARFSGSGSGTSYSLTISRMEAEDAATYYCQQRSSYPLTFGAGTKLELKRAAAHHHHHH
As for B1, the binding result in assay [1] was “no binding (tested: 50 µg/ml)”; in assay [2], “no binding (tested: 20 µg/ml)”; in assay [3] it was “no binding”; in assay [4], “no binding”; in assay [5] it was “no binding”; in assay [6], “no binding”. For the same molecule, the binding result in assay [7] is “no binding”.

B2: MFE-23 scFv (scFv)
scFv: QVKLQQSGAELVRSGTSVKLSCTASGFNIKDSYMHWLRQGPEQGLEWIGWIDPENGDTEYAPKFQGKATFTTDTSSNTAYLQLSSLTSEDTAVYYCNEGTPTGPYYFDYWGQGTTVTVSSGGGGSGGGGSGGGGSENVLTQSPAIMSASPGEKVTITCSASSSVSYMHWFQQKPGTSPKLWIYSTSNLASGVPARFSGSGSGTSYSLTISRMEAEDAATYYCQQRSSYPLTFGAGTKLELKRAAAHHHHHH
notes: also called parent MFE
Turning to B2, the binding result in assay [8] was “no binding (tested: 10 µg/ml)”.
